The text below walks through data of patent publication US20140087995A1 (published 2014).

Numbered stars: 1 amine (or outer) side, 2 acyl side, 3 side chain; on linkers, the order of the positions; unused ones are H or OH. Bridge positions count the residues as written; N and C are the ends. Side chains are listed from the residue outwards. Ends that are not written are not given here. * marks the point of attachment. C20 diacid = O=C(O)CCCCCCCCCCCCCCCCCCC(=O)*; γGlu = O=C(O)[C@H](CCC(=O)[*:2])N[*:1]

This assay deals with T1, human amylin receptor (amylin 3(a) receptor: human calcitonin receptor with RAMP-3) (human, UniProt P30988 25-474; O60896 24-148).
T1 construct: whole, on cells; also called hAmylin-R; hAmylinR
T1 sequence (looked up) 1: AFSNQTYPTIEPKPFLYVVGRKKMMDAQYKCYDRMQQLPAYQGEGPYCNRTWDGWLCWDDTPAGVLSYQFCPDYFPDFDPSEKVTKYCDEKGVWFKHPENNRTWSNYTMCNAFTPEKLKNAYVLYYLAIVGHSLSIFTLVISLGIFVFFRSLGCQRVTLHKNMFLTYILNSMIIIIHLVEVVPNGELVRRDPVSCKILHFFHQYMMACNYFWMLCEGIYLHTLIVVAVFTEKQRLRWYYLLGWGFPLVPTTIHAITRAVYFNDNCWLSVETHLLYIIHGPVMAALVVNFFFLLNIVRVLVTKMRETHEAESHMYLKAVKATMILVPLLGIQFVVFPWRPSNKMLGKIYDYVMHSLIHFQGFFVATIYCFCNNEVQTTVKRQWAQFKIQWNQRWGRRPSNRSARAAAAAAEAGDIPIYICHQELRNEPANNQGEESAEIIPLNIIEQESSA
T1 sequence (looked up) 2: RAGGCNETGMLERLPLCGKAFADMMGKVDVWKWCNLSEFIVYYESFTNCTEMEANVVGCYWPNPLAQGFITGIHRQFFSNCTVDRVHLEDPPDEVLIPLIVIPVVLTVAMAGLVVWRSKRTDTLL
The assay can be described thus: SPA displacement of 125I-rat amylin, hAmylin 3(a) receptor membranes. Summed up: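 Cell membranes were prepared by homogenisation in Na-HEPES/EDTA buffer, pH 7.4, and stored at −80° C. They were then coupled to SPA beads at 35 ng/μL final and exposed to compounds in assay buffer containing CaCl2, MgCl₂, OA and Tween20. After 120 min at 25° C, plates were counted and IC₅₀ derived.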

B1: N^ε1-[(4S)-4-carboxy-4-(19-carboxynonadecanoylamino)butanoyl]-[Arg17,Pro21,Pro27,Arg34]-h-amylin (peptide)
peptide: K([γGlu-C20 diacid])CNTATCATQRLANFLRHSSPNFGAIPSSTNVGRNTY-NH2
modifications: disulfide 2-7; N-terminus assumed
SMILES: CC[C@H](C)[C@H](NC(=O)[C@H](C)NC(=O)CNC(=O)[C@H](Cc1ccccc1)NC(=O)[C@H](CC(N)=O)NC(=O)[C@@H]1CCCN1C(=O)[C@H](CO)NC(=O)[C@H](CO)NC(=O)[C@H](Cc1c[nH]cn1)NC(=O)[C@H](CCCNC(=N)N)NC(=O)[C@H](CC(C)C)NC(=O)[C@H](Cc1ccccc1)NC(=O)[C@H](CC(N)=O)NC(=O)[C@H](C)NC(=O)[C@H](CC(C)C)NC(=O)[C@H](CCCNC(=N)N)NC(=O)[C@H](CCC(N)=O)NC(=O)[C@@H](NC(=O)[C@H](C)NC(=O)[C@@H]1CSSC[C@H](NC(=O)[C@@H](N)CCCCNC(=O)CC[C@H](NC(=O)CCCCCCCCCCCCCCCCCCC(=O)O)C(=O)O)C(=O)N[C@@H](CC(N)=O)C(=O)N[C@@H]([C@@H](C)O)C(=O)N[C@@H](C)C(=O)N[C@@H]([C@@H](C)O)C(=O)N1)[C@@H](C)O)C(=O)N1CCC[C@H]1C(=O)N[C@@H](CO)C(=O)N[C@@H](CO)C(=O)N[C@H](C(=O)N[C@@H](CC(N)=O)C(=O)N[C@H](C(=O)NCC(=O)N[C@@H](CCCNC(=N)N)C(=O)N[C@@H](CC(N)=O)C(=O)N[C@H](C(=O)N[C@@H](Cc1ccc(O)cc1)C(N)=O)[C@@H](C)O)C(C)C)[C@@H](C)O
notes: also called 79; compound 79
Regarding B1, the IC50 amounted to 0.79 nM.

B2: N^ε1-[(4S)-4-carboxy-4-(19-carboxynonadecanoylamino)butanoyl]-[Arg17,Pro21,Pro27,Glu35]-h-amylin (peptide)
peptide: K([γGlu-C20 diacid])CNTATCATQRLANFLRHSSPNFGAIPSSTNVGSETY-NH2
modifications: disulfide 2-7; N-terminus assumed
SMILES: CC[C@H](C)[C@H](NC(=O)[C@H](C)NC(=O)CNC(=O)[C@H](Cc1ccccc1)NC(=O)[C@H](CC(N)=O)NC(=O)[C@@H]1CCCN1C(=O)[C@H](CO)NC(=O)[C@H](CO)NC(=O)[C@H](Cc1c[nH]cn1)NC(=O)[C@H](CCCNC(=N)N)NC(=O)[C@H](CC(C)C)NC(=O)[C@H](Cc1ccccc1)NC(=O)[C@H](CC(N)=O)NC(=O)[C@H](C)NC(=O)[C@H](CC(C)C)NC(=O)[C@H](CCCNC(=N)N)NC(=O)[C@H](CCC(N)=O)NC(=O)[C@@H](NC(=O)[C@H](C)NC(=O)[C@@H]1CSSC[C@H](NC(=O)[C@@H](N)CCCCNC(=O)CC[C@H](NC(=O)CCCCCCCCCCCCCCCCCCC(=O)O)C(=O)O)C(=O)N[C@@H](CC(N)=O)C(=O)N[C@@H]([C@@H](C)O)C(=O)N[C@@H](C)C(=O)N[C@@H]([C@@H](C)O)C(=O)N1)[C@@H](C)O)C(=O)N1CCC[C@H]1C(=O)N[C@@H](CO)C(=O)N[C@@H](CO)C(=O)N[C@H](C(=O)N[C@@H](CC(N)=O)C(=O)N[C@H](C(=O)NCC(=O)N[C@@H](CO)C(=O)N[C@@H](CCC(=O)O)C(=O)N[C@H](C(=O)N[C@@H](Cc1ccc(O)cc1)C(N)=O)[C@@H](C)O)C(C)C)[C@@H](C)O
notes: also called 27; compound 27
With B2, the IC50 turned out to be 0.837 nM.

B3: N^ε1-[(4S)-4-carboxy-4-(19-carboxynonadecanoylamino)butanoyl]-[Arg17,Pro21,Pro27,His34]-h-amylin (peptide)
peptide: K([γGlu-C20 diacid])CNTATCATQRLANFLRHSSPNFGAIPSSTNVGHNTY-NH2
modifications: disulfide 2-7; N-terminus assumed
SMILES: CC[C@H](C)[C@H](NC(=O)[C@H](C)NC(=O)CNC(=O)[C@H](Cc1ccccc1)NC(=O)[C@H](CC(N)=O)NC(=O)[C@@H]1CCCN1C(=O)[C@H](CO)NC(=O)[C@H](CO)NC(=O)[C@H](Cc1c[nH]cn1)NC(=O)[C@H](CCCNC(=N)N)NC(=O)[C@H](CC(C)C)NC(=O)[C@H](Cc1ccccc1)NC(=O)[C@H](CC(N)=O)NC(=O)[C@H](C)NC(=O)[C@H](CC(C)C)NC(=O)[C@H](CCCNC(=N)N)NC(=O)[C@H](CCC(N)=O)NC(=O)[C@@H](NC(=O)[C@H](C)NC(=O)[C@@H]1CSSC[C@H](NC(=O)[C@@H](N)CCCCNC(=O)CC[C@H](NC(=O)CCCCCCCCCCCCCCCCCCC(=O)O)C(=O)O)C(=O)N[C@@H](CC(N)=O)C(=O)N[C@@H]([C@@H](C)O)C(=O)N[C@@H](C)C(=O)N[C@@H]([C@@H](C)O)C(=O)N1)[C@@H](C)O)C(=O)N1CCC[C@H]1C(=O)N[C@@H](CO)C(=O)N[C@@H](CO)C(=O)N[C@H](C(=O)N[C@@H](CC(N)=O)C(=O)N[C@H](C(=O)NCC(=O)N[C@@H](Cc1c[nH]cn1)C(=O)N[C@@H](CC(N)=O)C(=O)N[C@H](C(=O)N[C@@H](Cc1ccc(O)cc1)C(N)=O)[C@@H](C)O)C(C)C)[C@@H](C)O
notes: also called 77; compound 77
In the case of B3, the half-inhibitory concentration (IC50) turned out to be 0.428 nM.

B4: N^ε1-[(4S)-4-carboxy-4-(19-carboxynonadecanoylamino)butanoyl]-[Arg17,Pro21,Pro27,Lys35]-h-amylin (peptide)
peptide: K([γGlu-C20 diacid])CNTATCATQRLANFLRHSSPNFGAIPSSTNVGSKTY-NH2
modifications: disulfide 2-7; N-terminus assumed
SMILES: CC[C@H](C)[C@H](NC(=O)[C@H](C)NC(=O)CNC(=O)[C@H](Cc1ccccc1)NC(=O)[C@H](CC(N)=O)NC(=O)[C@@H]1CCCN1C(=O)[C@H](CO)NC(=O)[C@H](CO)NC(=O)[C@H](Cc1c[nH]cn1)NC(=O)[C@H](CCCNC(=N)N)NC(=O)[C@H](CC(C)C)NC(=O)[C@H](Cc1ccccc1)NC(=O)[C@H](CC(N)=O)NC(=O)[C@H](C)NC(=O)[C@H](CC(C)C)NC(=O)[C@H](CCCNC(=N)N)NC(=O)[C@H](CCC(N)=O)NC(=O)[C@@H](NC(=O)[C@H](C)NC(=O)[C@@H]1CSSC[C@H](NC(=O)[C@@H](N)CCCCNC(=O)CC[C@H](NC(=O)CCCCCCCCCCCCCCCCCCC(=O)O)C(=O)O)C(=O)N[C@@H](CC(N)=O)C(=O)N[C@@H]([C@@H](C)O)C(=O)N[C@@H](C)C(=O)N[C@@H]([C@@H](C)O)C(=O)N1)[C@@H](C)O)C(=O)N1CCC[C@H]1C(=O)N[C@@H](CO)C(=O)N[C@@H](CO)C(=O)N[C@H](C(=O)N[C@@H](CC(N)=O)C(=O)N[C@H](C(=O)NCC(=O)N[C@@H](CO)C(=O)N[C@@H](CCCCN)C(=O)N[C@H](C(=O)N[C@@H](Cc1ccc(O)cc1)C(N)=O)[C@@H](C)O)C(C)C)[C@@H](C)O
notes: also called 35; compound 35
On to B4, for which the half-inhibitory concentration (IC50) was 0.97 nM.

B5: N^ε1-[(4S)-4-carboxy-4-(19-carboxynonadecanoylamino)butanoyl]-[Glu14,Arg17,Pro21,Pro27,Arg35]-h-amylin (peptide)
peptide: K([γGlu-C20 diacid])CNTATCATQRLAEFLRHSSPNFGAIPSSTNVGSRTY-NH2
modifications: disulfide 2-7; N-terminus assumed
SMILES: CC[C@H](C)[C@H](NC(=O)[C@H](C)NC(=O)CNC(=O)[C@H](Cc1ccccc1)NC(=O)[C@H](CC(N)=O)NC(=O)[C@@H]1CCCN1C(=O)[C@H](CO)NC(=O)[C@H](CO)NC(=O)[C@H](Cc1c[nH]cn1)NC(=O)[C@H](CCCNC(=N)N)NC(=O)[C@H](CC(C)C)NC(=O)[C@H](Cc1ccccc1)NC(=O)[C@H](CCC(=O)O)NC(=O)[C@H](C)NC(=O)[C@H](CC(C)C)NC(=O)[C@H](CCCNC(=N)N)NC(=O)[C@H](CCC(N)=O)NC(=O)[C@@H](NC(=O)[C@H](C)NC(=O)[C@@H]1CSSC[C@H](NC(=O)[C@@H](N)CCCCNC(=O)CC[C@H](NC(=O)CCCCCCCCCCCCCCCCCCC(=O)O)C(=O)O)C(=O)N[C@@H](CC(N)=O)C(=O)N[C@@H]([C@@H](C)O)C(=O)N[C@@H](C)C(=O)N[C@@H]([C@@H](C)O)C(=O)N1)[C@@H](C)O)C(=O)N1CCC[C@H]1C(=O)N[C@@H](CO)C(=O)N[C@@H](CO)C(=O)N[C@H](C(=O)N[C@@H](CC(N)=O)C(=O)N[C@H](C(=O)NCC(=O)N[C@@H](CO)C(=O)N[C@@H](CCCNC(=N)N)C(=O)N[C@H](C(=O)N[C@@H](Cc1ccc(O)cc1)C(N)=O)[C@@H](C)O)C(C)C)[C@@H](C)O
notes: also called 51; compound 51
As to B5, the IC50 was determined as 0.828 nM.

B6: N^ε1-[(4S)-4-carboxy-4-(19-carboxynonadecanoylamino)butanoyl]-[Arg17,Pro21,Pro27,His35]-h-amylin (peptide)
peptide: K([γGlu-C20 diacid])CNTATCATQRLANFLRHSSPNFGAIPSSTNVGSHTY-NH2
modifications: disulfide 2-7; N-terminus assumed
SMILES: CC[C@H](C)[C@H](NC(=O)[C@H](C)NC(=O)CNC(=O)[C@H](Cc1ccccc1)NC(=O)[C@H](CC(N)=O)NC(=O)[C@@H]1CCCN1C(=O)[C@H](CO)NC(=O)[C@H](CO)NC(=O)[C@H](Cc1c[nH]cn1)NC(=O)[C@H](CCCNC(=N)N)NC(=O)[C@H](CC(C)C)NC(=O)[C@H](Cc1ccccc1)NC(=O)[C@H](CC(N)=O)NC(=O)[C@H](C)NC(=O)[C@H](CC(C)C)NC(=O)[C@H](CCCNC(=N)N)NC(=O)[C@H](CCC(N)=O)NC(=O)[C@@H](NC(=O)[C@H](C)NC(=O)[C@@H]1CSSC[C@H](NC(=O)[C@@H](N)CCCCNC(=O)CC[C@H](NC(=O)CCCCCCCCCCCCCCCCCCC(=O)O)C(=O)O)C(=O)N[C@@H](CC(N)=O)C(=O)N[C@@H]([C@@H](C)O)C(=O)N[C@@H](C)C(=O)N[C@@H]([C@@H](C)O)C(=O)N1)[C@@H](C)O)C(=O)N1CCC[C@H]1C(=O)N[C@@H](CO)C(=O)N[C@@H](CO)C(=O)N[C@H](C(=O)N[C@@H](CC(N)=O)C(=O)N[C@H](C(=O)NCC(=O)N[C@@H](CO)C(=O)N[C@@H](Cc1c[nH]cn1)C(=O)N[C@H](C(=O)N[C@@H](Cc1ccc(O)cc1)C(N)=O)[C@@H](C)O)C(C)C)[C@@H](C)O
notes: also called 60; compound 60
For the molecule B6, the IC50 was found to be 0.695 nM.
